{
  "source": "the RNAGym collection of RNA variant scans (doi:10.1021/acssynbio.7b00057)",
  "parents": {"B1": {"name": "Pistol ribozyme (parent)", "chain": "GGGUCGUUGUUCCAUAAUCGCGUGGAUAUGGCACGCAAGUUUCUACCGGGCACCGUAAAUGUCCGACUGGAGCCGUUCGGGCGGCUAUAAACAGACCUCAGGCCCGAAGCGUGGCGGCACCUGCCGCCGGUGGUAAAAAAGAUCGGAAGAGCACACGUCU"}},
  "data": [
    {"variants_of": "B1", "experiment": "aptazyme ON/OFF ratio, guanine; higher = stronger switching; co-transcriptional cleavage with and without guanine", "values": [
      {"variant": "U7A U8A G9U U10C U11G C12U C13A", "aptazyme ON/OFF ratio": 1.15},
      {"variant": "U7G G9A U11G C12U C13U", "aptazyme ON/OFF ratio": 1.2},
      {"variant": "U7G U8G G9A U10C U11C", "aptazyme ON/OFF ratio": 1.08},
      {"variant": "U8G G9C U10G U11C C13U", "aptazyme ON/OFF ratio": 1.04},
      {"variant": "U7G U8A G9C U10C C12G C13A", "aptazyme ON/OFF ratio": 1.14},
      {"variant": "U7A U8G G9C U10G C13U", "aptazyme ON/OFF ratio": 1.17},
      {"variant": "U7A U8G G9C U10G C13G", "aptazyme ON/OFF ratio": 1.19},
      {"variant": "U8G G9U U10A U11C C12U C13U", "aptazyme ON/OFF ratio": 1.05},
      {"variant": "U7C U8A G9C U10A C13A", "aptazyme ON/OFF ratio": 1.17},
      {"variant": "U7G G9U U11C C12U C13A", "aptazyme ON/OFF ratio": 1.37},
      {"variant": "U8G G9C U10A U11G C13G", "aptazyme ON/OFF ratio": 1.04},
      {"variant": "U7C G9C U11C C12A C13G", "aptazyme ON/OFF ratio": 1.02},
      {"variant": "U8A G9C U11G", "aptazyme ON/OFF ratio": 1.25},
      {"variant": "U7G U11G", "aptazyme ON/OFF ratio": 1.32},
      {"variant": "U7G U8A G9U U10C U11G C12U C13G", "aptazyme ON/OFF ratio": 1.07},
      {"variant": "U7A U8A G9C U11A C12U", "aptazyme ON/OFF ratio": 1.2},
      {"variant": "U7C G9C U11C", "aptazyme ON/OFF ratio": 1.03},
      {"variant": "U8C G9A U10A U11C C13A", "aptazyme ON/OFF ratio": 1.05},
      {"variant": "U7C U8G U10A C12G C13A", "aptazyme ON/OFF ratio": 1.13},
      {"variant": "U7A U8G G9A U10A U11G C13G", "aptazyme ON/OFF ratio": 1.27},
      {"variant": "U8G G9C U11C C13G", "aptazyme ON/OFF ratio": 1.04},
      {"variant": "U7G G9U U10A C12A C13A", "aptazyme ON/OFF ratio": 1.38},
      {"variant": "U7A U8C U10A U11G C12U C13U", "aptazyme ON/OFF ratio": 1.26},
      {"variant": "U8A G9C U10C C13A", "aptazyme ON/OFF ratio": 1.01},
      {"variant": "U7G G9C U11A C12G C13G", "aptazyme ON/OFF ratio": 1.23},
      {"variant": "G9U U11G C12A", "aptazyme ON/OFF ratio": 2.21},
      {"variant": "U8A G9U U10A U11G C12U C13A", "aptazyme ON/OFF ratio": 1.27},
      {"variant": "U7G G9U U10G U11G C13U", "aptazyme ON/OFF ratio": 1.3},
      {"variant": "U8C U10G U11G C12A C13A", "aptazyme ON/OFF ratio": 1.11},
      {"variant": "U7G U8G G9A U11A C13U", "aptazyme ON/OFF ratio": 1.11},
      {"variant": "U7C U8A G9C U10G U11G C12A C13U", "aptazyme ON/OFF ratio": 1.06},
      {"variant": "U7G U8C G9C", "aptazyme ON/OFF ratio": 1.35},
      {"variant": "U7A U10A U11G C13U", "aptazyme ON/OFF ratio": 1.19},
      {"variant": "U7G G9U U10C U11C C12A C13A", "aptazyme ON/OFF ratio": 1.37},
      {"variant": "U7C G9C U10G C12G C13A", "aptazyme ON/OFF ratio": 1.11},
      {"variant": "U7C G9C U10G U11A C13A", "aptazyme ON/OFF ratio": 1.17},
      {"variant": "U7G G9C U10A U11C C13A", "aptazyme ON/OFF ratio": 1.21},
      {"variant": "G9A U11C C12U", "aptazyme ON/OFF ratio": 1.35},
      {"variant": "U7C U8C U11A C12U C13U", "aptazyme ON/OFF ratio": 1.37},
      {"variant": "U7C U8G G9A U10A U11A C12G C13U", "aptazyme ON/OFF ratio": 1.21},
      {"variant": "U8C G9A U10C U11C C12G C13U", "aptazyme ON/OFF ratio": 1.16},
      {"variant": "U7G U8G G9A U10G U11A C12U C13G", "aptazyme ON/OFF ratio": 1.21},
      {"variant": "U7G G9A U10A C12U C13G", "aptazyme ON/OFF ratio": 1.24},
      {"variant": "U8G G9A U10C C12U C13U", "aptazyme ON/OFF ratio": 1.11},
      {"variant": "U7C U8C C12A", "aptazyme ON/OFF ratio": 1.37},
      {"variant": "U7A G9A U10C U11C C12U", "aptazyme ON/OFF ratio": 1.03},
      {"variant": "U7G U8A U10C C12U C13G", "aptazyme ON/OFF ratio": 1.26},
      {"variant": "U8A G9A U11C C12U", "aptazyme ON/OFF ratio": 1.09},
      {"variant": "U7G G9C U10G U11A C12G C13A", "aptazyme ON/OFF ratio": 1.14},
      {"variant": "U7C U8C G9C U10G U11G C12G", "aptazyme ON/OFF ratio": 1.14},
      {"variant": "U7A U8G G9C U10A U11G C13U", "aptazyme ON/OFF ratio": 1.37},
      {"variant": "U7G U8A G9C U10C C13G", "aptazyme ON/OFF ratio": 1.01},
      {"variant": "U8C G9U U10C U11G C12A", "aptazyme ON/OFF ratio": 1.07},
      {"variant": "U7A U8A U10A U11C C12U C13U", "aptazyme ON/OFF ratio": 1.04},
      {"variant": "U7C U8A U10G U11C C13G", "aptazyme ON/OFF ratio": 1.08},
      {"variant": "U8C G9C U10A U11A C12G C13G", "aptazyme ON/OFF ratio": 1.18},
      {"variant": "U8C G9A U10A U11A C13U", "aptazyme ON/OFF ratio": 1.28},
      {"variant": "U7A U8G G9U U10C", "aptazyme ON/OFF ratio": 2.52},
      {"variant": "U7G U8G G9C U11A C12A", "aptazyme ON/OFF ratio": 1.31},
      {"variant": "U7G U8G G9C U10A U11A C13U", "aptazyme ON/OFF ratio": 1.07},
      {"variant": "U7A G9U U10G C13A", "aptazyme ON/OFF ratio": 1.33},
      {"variant": "U8A G9C U10A U11C C13A", "aptazyme ON/OFF ratio": 1.1},
      {"variant": "U7A U8C U10G U11G C13G", "aptazyme ON/OFF ratio": 1.2},
      {"variant": "U8C G9C U11G C12G C13U", "aptazyme ON/OFF ratio": 1.09},
      {"variant": "U7C U8G U10C C12G", "aptazyme ON/OFF ratio": 2.01},
      {"variant": "U7A U8G G9A U11C C12U C13A", "aptazyme ON/OFF ratio": 1.07},
      {"variant": "U8C G9C U10C C13A", "aptazyme ON/OFF ratio": 1.01},
      {"variant": "U7C G9U U11G C12U C13A", "aptazyme ON/OFF ratio": 1.17},
      {"variant": "U7G G9U U10G C12A", "aptazyme ON/OFF ratio": 1.7},
      {"variant": "U7G U8A U10C C12G C13U", "aptazyme ON/OFF ratio": 1.31},
      {"variant": "G9A U11C C12U C13A", "aptazyme ON/OFF ratio": 1.41},
      {"variant": "U7G U8C U10C U11A C12G", "aptazyme ON/OFF ratio": 1.25},
      {"variant": "U7A G9A U10G U11A C13G", "aptazyme ON/OFF ratio": 1.03},
      {"variant": "U7C G9A U10C U11A C12A C13G", "aptazyme ON/OFF ratio": 1.22},
      {"variant": "U7A U8C G9A U11C C12A C13A", "aptazyme ON/OFF ratio": 1.19},
      {"variant": "U7G U8A U10C U11G C13A", "aptazyme ON/OFF ratio": 1.34},
      {"variant": "U8G G9C U10C C13U", "aptazyme ON/OFF ratio": 1.07},
      {"variant": "U10G U11G C13G", "aptazyme ON/OFF ratio": 1.21},
      {"variant": "U7A G9A U11A C12U C13U", "aptazyme ON/OFF ratio": 1.42},
      {"variant": "G9C U10C U11G C12U C13U", "aptazyme ON/OFF ratio": 1.06},
      {"variant": "U7C U8A G9C U10G C12U C13G", "aptazyme ON/OFF ratio": 1.17},
      {"variant": "U10A U11A C13U", "aptazyme ON/OFF ratio": 1.35},
      {"variant": "U7A U8C G9C U10A U11G C12G C13U", "aptazyme ON/OFF ratio": 1.14},
      {"variant": "U7C U8G G9C U11C C12U C13A", "aptazyme ON/OFF ratio": 1.15}
    ]}
  ]
}
